Values of other authors in article PMC10618199.
pKd: −log10 of the molar value.

Target: insulin receptor site-2 (Homo sapiens) (UniProt P06213)

insulin, sequence (P01308 90-110): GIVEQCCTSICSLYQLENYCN

## insulin (from UniProt P01308)
  pKd: 6.40
